{"source": "paper PMC10322703", "about": "(Nature Microbiology, 2023)", "binders": {"B1": {"name": "SNV-42, human monoclonal antibody (IgG1) (antibody, V domains shown)", "VH": "EVQLVESGGGLVQPGGSLRLSCAASGFTFSTYEMNWVRQAPGKGLEWVSYIRSSGSTVYYADSVKGRFTISRDNAKNLLYLQMNSLRAGDTAVYYCARIPGGYTGYFDYWGQGALVTVSS", "VL": "QSVLTQPPSVSGAPGQRVTISCTGSSSNIGAGYYVHWYQQLPGTVPKLLIYGNNNRPSGVPDRFSGSKSGTSASLAITGLQTEDEADYYCQSYDSSLSGWVFGGGTKLTVL"}, "B2": {"name": "SNV-42 F(ab')2 (other)", "chain 1": "B1 VH", "chain 2": "B1 VL"}, "B3": {"name": "SNV-42^GR, germline-revertant form of SNV-42 (IgG1) (antibody, V domains shown)", "VH": "B1 VH with T31S, R52S, V58I, L78S, G89E, T104S, A114T", "VL": "B1 VL with Y34D, V45A, N54S, T82A"}, "B4": {"name": "SNV-42 Fab (Fab, V domains shown)", "VH": "B1 VH", "VL": "B1 VL"}}, "target": "SNV Gn^H, recombinant histidine-tagged N-terminal ectodomain region (head domain) of Sin Nombre viru (Sin Nombre virus, UniProt Q89905)", "assay": "BLI", "details": "both partners purified", "note": "Numbering of substitutions follows the chain as printed."}
{"binder": "B1", "values": [{"measurement": "Kd", "value": "< 0.001", "unit": "nM"}, {"measurement": "koff", "value": "< 1e-07", "unit": "s⁻¹"}, {"measurement": "kon", "value": 132000, "unit": "M⁻¹ s⁻¹"}]}
{"binder": "B2", "values": [{"measurement": "Kd", "value": "< 0.001", "unit": "nM"}, {"measurement": "koff", "value": "< 1e-07", "unit": "s⁻¹"}, {"measurement": "kon", "value": 61400, "unit": "M⁻¹ s⁻¹"}]}
{"binder": "B3", "values": [{"measurement": "Kd", "value": 0.811, "unit": "nM"}, {"measurement": "koff", "value": 0.000454, "unit": "s⁻¹"}, {"measurement": "kon", "value": 514000, "unit": "M⁻¹ s⁻¹"}]}
{"binder": "B4", "values": [{"measurement": "koff", "value": 0.00561, "unit": "s⁻¹"}, {"measurement": "kon", "value": 139000, "unit": "M⁻¹ s⁻¹"}]}
